Source: the RNAGym collection of RNA variant scans (doi:10.7554/elife.80360)

B1: HDV Ribozyme (parent)
chain: GGCCGGCAUGGUCCCAGCCUCCUCGCUGGCGCCGGCUGGGCAACAUUCCGAGGGGACCGUCCCCUCGGUAAUGGCGAAUGGGACCCA

Variants of: B1
Test: self-cleavage, relative activity (ratio to wild type); higher = more cleavage; co-transcriptional

Q: With G55C A71U as the variant, how does the self-cleavage read?
A: 0.872

Q: With G55C A71C as the variant, how does the self-cleavage read?
A: 0.903

Q: For G55A G73A, which self-cleavage is on record?
A: 0.812

Q: For G55C C57U, which self-cleavage is on record?
A: 0.976

Q: With A56G G82U as the variant, how does the self-cleavage read?
A: 0.244

Q: For A56G G82A, which self-cleavage is on record?
A: 0.277

Q: Which self-cleavage does the source give for C57A A78C here?
A: 0.0437

Q: With C57A A78U as the variant, how does the self-cleavage read?
A: 0.108

Q: Which self-cleavage does the source give for A56G G81A here?
A: 0.665

Q: Which self-cleavage does the source give for A56G G81C here?
A: 0.198

Q: With G55A A70G as the variant, how does the self-cleavage read?
A: 0.89

Q: For A56G C58U, which self-cleavage is on record?
A: 0.862

Q: With A56G C58A as the variant, how does the self-cleavage read?
A: 1.12

Q: With G55U G67U as the variant, how does the self-cleavage read?
A: 1.07

Q: With G55U U65G as the variant, how does the self-cleavage read?
A: 0.847

Q: Which self-cleavage does the source give for G55U U65A here?
A: 0.891

Q: For A56C C75G, which self-cleavage is on record?
A: 0.115

Q: Which self-cleavage does the source give for A56C C75A here?
A: 0.116

Q: With A56C C75U as the variant, how does the self-cleavage read?
A: 0.0723

Q: Which self-cleavage does the source give for G55A A87U here?
A: 1

Q: For G55A A87C, which self-cleavage is on record?
A: 1.1

Q: With G55A A87G as the variant, how does the self-cleavage read?
A: 0.966

Q: With A56U U79A as the variant, how does the self-cleavage read?
A: 0.569

Q: For A56U U79C, which self-cleavage is on record?
A: 0.429

Q: For A56U U79G, which self-cleavage is on record?
A: 0.787

Q: With G55A C63G as the variant, how does the self-cleavage read?
A: 0.632

Q: With G55A C63A as the variant, how does the self-cleavage read?
A: 1.21

Q: With G55A G81C as the variant, how does the self-cleavage read?
A: 0.312

Q: For A56U C64A, which self-cleavage is on record?
A: 0.899

Q: For A56U C64G, which self-cleavage is on record?
A: 0.882

Q: For A56U C64U, which self-cleavage is on record?
A: 1.07

Q: With A56G C84A as the variant, how does the self-cleavage read?
A: 1.16

Q: With A56G C84U as the variant, how does the self-cleavage read?
A: 0.973

Q: With G55A G80A as the variant, how does the self-cleavage read?
A: 0.369

Q: Which self-cleavage does the source give for G55A G80C here?
A: 0.138

Q: Which self-cleavage does the source give for C57A G73U here?
A: 0.322

Q: Which self-cleavage does the source give for C57G C62U here?
A: 1.03

Q: With C57G C62G as the variant, how does the self-cleavage read?
A: 0.87

Q: Which self-cleavage does the source give for A56C C61G here?
A: 1.05

Q: With G55A C75A as the variant, how does the self-cleavage read?
A: 0.254

Q: Which self-cleavage does the source give for C57A G59C here?
A: 0.923

Q: With C57A G59A as the variant, how does the self-cleavage read?
A: 1.04

Q: Which self-cleavage does the source give for C57A G59U here?
A: 1.11

Q: Which self-cleavage does the source give for C57A C58A here?
A: 1.07

Q: Which self-cleavage does the source give for A56U C62A here?
A: 1.05

Q: For A56U C62U, which self-cleavage is on record?
A: 0.847

Q: With G54U G82C as the variant, how does the self-cleavage read?
A: 0.237

Q: For G54U G82U, which self-cleavage is on record?
A: 0.432

Q: With A56G A71C as the variant, how does the self-cleavage read?
A: 0.534

Q: With G55A A56U as the variant, how does the self-cleavage read?
A: 0.926

Q: With G55A U65G as the variant, how does the self-cleavage read?
A: 1.09

Q: For A56G C57U, which self-cleavage is on record?
A: 0.985

Q: With A56U A78G as the variant, how does the self-cleavage read?
A: 0.684

Q: For G54U U60A, which self-cleavage is on record?
A: 0.946

Q: With G54U U60C as the variant, how does the self-cleavage read?
A: 1

Q: Which self-cleavage does the source give for G55C G80A here?
A: 0.34

Q: For G55A U60G, which self-cleavage is on record?
A: 0.798

Q: Which self-cleavage does the source give for G55A U60A here?
A: 0.99

Q: With A56U C63G as the variant, how does the self-cleavage read?
A: 0.815

Q: For A56U C63U, which self-cleavage is on record?
A: 0.799

Q: With A56C G68A as the variant, how does the self-cleavage read?
A: 1.11

Q: Which self-cleavage does the source give for A56C G68U here?
A: 1.08

Q: Which self-cleavage does the source give for C57G C58A here?
A: 1.26

Q: With C57G C58G as the variant, how does the self-cleavage read?
A: 0.943

Q: For G55C U79A, which self-cleavage is on record?
A: 0.527

Q: Which self-cleavage does the source give for A56G G76A here?
A: 0.96

Q: For G55U A78U, which self-cleavage is on record?
A: 0.224

Q: With G55U A78G as the variant, how does the self-cleavage read?
A: 0.684

Q: Which self-cleavage does the source give for A56U C86G here?
A: 1.19

Q: For A56U C86A, which self-cleavage is on record?
A: 1.01

Q: For A56U C86U, which self-cleavage is on record?
A: 0.906

Q: For A56U G74U, which self-cleavage is on record?
A: 0.718

Q: Which self-cleavage does the source give for A56U G74A here?
A: 0.681

Q: For G55U C86A, which self-cleavage is on record?
A: 0.911

Q: Which self-cleavage does the source give for G55U C86U here?
A: 0.923

Q: Which self-cleavage does the source give for C57A U72G here?
A: 0.635

Q: With G54U G76A as the variant, how does the self-cleavage read?
A: 0.981

Q: Which self-cleavage does the source give for G54U G76C here?
A: 0.73

Q: With G54U G76U as the variant, how does the self-cleavage read?
A: 1.09

Q: With G55U U79C as the variant, how does the self-cleavage read?
A: 0.395

Q: With C57G A70U as the variant, how does the self-cleavage read?
A: 0.96

Q: Which self-cleavage does the source give for C57G A70C here?
A: 0.959

Q: Which self-cleavage does the source give for G55C A77U here?
A: 0.65

Q: Which self-cleavage does the source give for C57G C61A here?
A: 1.03

Q: Which self-cleavage does the source give for C57G A78U here?
A: 0.441

Q: Which self-cleavage does the source give for A56C here?
A: 1

Q: Which self-cleavage does the source give for A56U here?
A: 0.989

Q: For A56G, which self-cleavage is on record?
A: 0.995

Q: With G55C G68U as the variant, how does the self-cleavage read?
A: 1.08

Q: With G55U C57A as the variant, how does the self-cleavage read?
A: 1.12

Q: For G55U C57U, which self-cleavage is on record?
A: 1.11

Q: Which self-cleavage does the source give for G55C U72C here?
A: 0.798

Q: Which self-cleavage does the source give for G55A G59U here?
A: 0.973

Q: For G55A G59A, which self-cleavage is on record?
A: 1.13

Q: Which self-cleavage does the source give for A56C G67C here?
A: 1.01

Q: Which self-cleavage does the source give for A56C G67U here?
A: 0.814

Q: With G55U C84G as the variant, how does the self-cleavage read?
A: 0.546

Q: With G55U C84U as the variant, how does the self-cleavage read?
A: 0.743

Q: For A56C U60G, which self-cleavage is on record?
A: 0.68

Q: With A56C U60A as the variant, how does the self-cleavage read?
A: 0.937

Q: With C57G C84A as the variant, how does the self-cleavage read?
A: 0.933

Q: With G55U G74A as the variant, how does the self-cleavage read?
A: 0.668

Q: Which self-cleavage does the source give for G55U here?
A: 1.01

Q: For G55A, which self-cleavage is on record?
A: 0.996

Q: For G55C, which self-cleavage is on record?
A: 1.02

Q: For G55C C85G, which self-cleavage is on record?
A: 1.15

Q: Which self-cleavage does the source give for C57G C75A here?
A: 0.287

Q: With C57G C75U as the variant, how does the self-cleavage read?
A: 0.271

Q: With C57G C75G as the variant, how does the self-cleavage read?
A: 0.185

Q: For G55C G81A, which self-cleavage is on record?
A: 0.496

Q: For G55C G81C, which self-cleavage is on record?
A: 0.141

Q: Which self-cleavage does the source give for G55A A78U here?
A: 0.201

Q: Which self-cleavage does the source give for G55A A78G here?
A: 0.698

Q: Which self-cleavage does the source give for G55A A78C here?
A: 0.0639

Q: For G55U A77U, which self-cleavage is on record?
A: 0.453

Q: With G55U A77G as the variant, how does the self-cleavage read?
A: 0.607

Q: With G55C A78C as the variant, how does the self-cleavage read?
A: 0.111

Q: For G55C A78U, which self-cleavage is on record?
A: 0.324

Q: For G55C A78G, which self-cleavage is on record?
A: 0.525

Q: For G55U U60A, which self-cleavage is on record?
A: 0.886

Q: For A56C G74A, which self-cleavage is on record?
A: 0.65

Q: Which self-cleavage does the source give for A56C G74U here?
A: 0.708

Q: For G55U C63U, which self-cleavage is on record?
A: 0.997

Q: For G55U C63G, which self-cleavage is on record?
A: 0.695

Q: Which self-cleavage does the source give for A56U G76A here?
A: 0.939

Q: With C57A U65C as the variant, how does the self-cleavage read?
A: 0.762

Q: With C57A U65G as the variant, how does the self-cleavage read?
A: 1.04

Q: For G55U U72G, which self-cleavage is on record?
A: 0.652

Q: Which self-cleavage does the source give for A56C G81U here?
A: 0.277

Q: For G55A C66U, which self-cleavage is on record?
A: 1.11

Q: For G55A C66A, which self-cleavage is on record?
A: 1.07

Q: For C57A C84U, which self-cleavage is on record?
A: 0.935

Q: For A56U U72C, which self-cleavage is on record?
A: 0.489

Q: For G55C G59A, which self-cleavage is on record?
A: 1.06

Q: With G55C G59U as the variant, how does the self-cleavage read?
A: 0.87

Q: For A56C C63U, which self-cleavage is on record?
A: 1.01

Q: For A56C C63A, which self-cleavage is on record?
A: 1.04

Q: With G55A C61U as the variant, how does the self-cleavage read?
A: 0.96

Q: With A56G C86U as the variant, how does the self-cleavage read?
A: 0.987

Q: With G55U G76A as the variant, how does the self-cleavage read?
A: 1.17

Q: Which self-cleavage does the source give for G55U G76U here?
A: 0.993

Q: For G55U G76C, which self-cleavage is on record?
A: 1.08

Q: Which self-cleavage does the source give for C57A U60G here?
A: 0.831

Q: With G55C C86A as the variant, how does the self-cleavage read?
A: 1.03

Q: With G55C G73A as the variant, how does the self-cleavage read?
A: 0.751

Q: Which self-cleavage does the source give for G55C A83G here?
A: 0.767

Q: Which self-cleavage does the source give for G54U G80C here?
A: 0.159

Q: With A56G G67C as the variant, how does the self-cleavage read?
A: 1.05

Q: Which self-cleavage does the source give for A56G U72G here?
A: 0.677

Q: With C57A G80C as the variant, how does the self-cleavage read?
A: 0.166

Q: Which self-cleavage does the source give for G55U C62G here?
A: 0.793

Q: Which self-cleavage does the source give for G55A G74C here?
A: 0.208

Q: For G55U G73U, which self-cleavage is on record?
A: 0.295

Q: For G55U G73C, which self-cleavage is on record?
A: 0.499

Q: Which self-cleavage does the source give for G55U A71G here?
A: 1.04

Q: For G55U A71U, which self-cleavage is on record?
A: 0.786

Q: For A56G U60A, which self-cleavage is on record?
A: 0.914

Q: For A56G U60C, which self-cleavage is on record?
A: 1.21

Q: For G55A C85G, which self-cleavage is on record?
A: 0.962

Q: With G55C G74A as the variant, how does the self-cleavage read?
A: 0.538

Q: With G55C G74U as the variant, how does the self-cleavage read?
A: 0.652

Q: With G55C G74C as the variant, how does the self-cleavage read?
A: 0.297

Q: With G55A U72A as the variant, how does the self-cleavage read?
A: 0.917

Q: Which self-cleavage does the source give for A56U C85A here?
A: 0.966

Q: For A56U C85G, which self-cleavage is on record?
A: 0.982

Q: With G55C C61U as the variant, how does the self-cleavage read?
A: 1

Q: Which self-cleavage does the source give for A56G A77G here?
A: 1.11
